Article PMC11134965

Legend:
[1] = target: chicken nesfatin-1 (chicken (Gallus gallus)); assay: AUC; sedimentation velocity, 20 °C, 50,000 rpm, buffer B1 (20 mM Tris-HCl pH 7.5, 150 mM NaCl) with 500 µM ZnCl2; gN1 at 0.7, 1.0, 1.3 mg/ml; c(s) model
[2] = target: chicken nesfatin-1 (chicken (Gallus gallus)); assay: AUC; sedimentation velocity, 20 °C, 50,000 rpm, buffer B1 (20 mM Tris-HCl pH 7.5, 150 mM NaCl) with 50 µM Zn(II); gN1/2 at 0.92, 1.32, 1.85 mg/ml, gN1 (Table S1); c(s) model
[3] = target: chicken nesfatin-1/2 (nesfatin-1 and nesfatin-2 conjoined in a head-to-tail manner) (chicken (Gallus gallus)); assay: as above

| relative abundance of the second sedimenting species (2.59 S) at 1.0 mg/ml, 500 µM Zn(II) [1] | relative abundance of the second sedimenting species (2.60 S) at 0.7 mg/ml, 500 µM Zn(II) [1] | relative abundance of the second sedimenting species (2.63 S) at 1.3 mg/ml, 500 µM Zn(II) [1] | stoichiometry N [1] | relative abundance of the second sedimenting species (2.16 S), 50 µM Zn(II) [2] | relative abundance of the second sedimenting species (3.43 S) at 1.85 mg/ml, 50 µM Zn(II) [3] | relative abundance of the second sedimenting species (3.49 S) at 0.92 mg/ml, 50 µM Zn(II) [3] | relative abundance of the second sedimenting species (3.64 S) at 1.32 mg/ml, 50 µM Zn(II) [3] | stoichiometry N [3] | Substance |
| --- | --- | --- | --- | --- | --- | --- | --- | --- | --- |
| 51% | 44% | 51% | 2 | 17% |  |  |  |  | chicken nesfatin-1 (peptide) |
|  |  |  |  |  | 13% | 13% | 15% | 2 | chicken nesfatin-1/2 (nesfatin-1 and nesfatin-2 conjoined in a head-to-tail manner) (domain or fragment) |
